Experimental data as given in the DeepSol protein solubility set.

Test: soluble on expression in E. coli; label from the status in PepcDB or PDB records

Sequence	soluble on expression in E. coli
MIAWYGMALDQAVVNRPVKAKLYSKIVDSVECTACSRYCRLKPGKTGFCGVRKNIDGDLYLLVYGLPAAINVDPIEKKPVLHMYPGARIFSLSTVGCSFACQYCQNYDISQRRTITGYHYDPEEIVEEALSMGCQGIAYTYNEPSIFMEYAHDIGVIARRHGLINIFVTNGFETPEAIDYARDFLDAATVDFKGNASDEFYRKYISVPSARPIFETLANLKSAGIHVEVTDLVVPEVGDRLEDARTMLERIMDILGEYVPISFLRFHPDYRMMDLPDTPVETLRKHHDLAVSMGFKYVYIGNVPGYGENTYCPNCGNLLIERFVFSSKVIGLDRNGRCKKCGYDPQIPLMKEKRADYIS	not soluble
MSLRIVFKIGSNLLETDEGDIDLSFLSKLAEGIKKLHSFGDKVLIVSSGAVLSGAKKLGIKEKPKDLTLKQALASVGQSYLMHLYDTIFSNYGLKVGQVLLTKDVFSKEKEERFKNAKSTLEKLLELGVVPVINENDAVAVEELVFGDNDFLAVYVSFMVNADLLVIFSSAGGLKDDKDRIIPVVEDIEKVFKYVRGTGTSFGTGGMRSKLEATRLATTLNIPVIITSKEENILDLRNLKTKGTLFKPSKRKLRNALKVIATLEEPKGIIVVDRGAQEALKAGKSLLPAGVVSVQGNFKRGDVVSIQNEEGLIIGKGKVNFSSEEIEKIKGLKTSEVRKLLNTTKDEVIHRDNMVIFLEGHHHHHH	not soluble
MLDYVPWIGNGYRYGNNHRGSNSSTSGVTTQGQSQNASSNEPAPTFSNVGVGLKANVNGTLSGSRTTPNQQGTPWLTLDQANLQLWTGAGWRNDKNGQSDENYTNFASAKGSTNQQGSTTGGSAGNPDSLKQDKADKSGDSVTVAEATSGDNLTNYTNLPPTSPPHPTDRTRCHSPTRTTPSGCSCSCAACWAASRCWSIRVGKMITVSLIPPTKNGLTPNLEHHHHHH	not soluble
MSLQKLAVFDFDSTLVNAETIESLARAWGVFDEVKTITLKAMNGETDFHKSLILRVSKLKNMPLKLAKEVCESLPLFEGALELVSALKEKNYKVVCFSGGFDLATNHYRDLLHLDAAFSNTLIVENDALNGLVTGHMMFSHSKGEMLLVLQRLLNISKTNTLVVGDGANDLSMFKHAHIKIAFNAKEVLKQHATHCINEPDLALIKPLIEGHHHHHH	soluble
RVCPRILLECKKDSDCLAECVCLEHGYCG	soluble
GMLESVRKEWLEIMDRELLEKARSLINANYISTTLSTVDRNYEVNIAVISVLEMIGDDTIICARFGADKTYANLKETGKGVFMVLLTDNDKSKDGIRVYVELSADLQEGEYFDRIKKRLDNTTYKNFPLKNCLVFKIVKILPVSLLRK	soluble
MPHIAHRKNGTYDQSGFNCSLFCSFVQKQGCRTMIQLTTPVENPVIRERLISYANKLFFVGSCFSLEVGSYMRQAGFRTEINPFGIMYNPLSIAGCIGRLLDPVPYQAEELFEYDGLFHSFDHHGAFSHAKKEETLQHLNDSLHVGHEALLRSDRLFFTWGTAFVYNYVSANKVVANCHKLPERLFRRQMVGIDDLLAVWIPLIERLLSSSPDRRIILTVSPVRHLRDGAVGNQQSKATLVLFCKALTGRFPEHLYYFPAYEIMMDELRDYRYYADDMTHPSSLAVSIIRERFADIFVEKDHREAMDACLKLRRRMAHRPLHPDSPDAMLFEAQTQTLVSALLRKYPDLVLDDIAGEMES	not soluble
MGSDKIHHHHHHMQILKTSDVPTGIVLLDRRLDGGLPAGSFVCVYANPLAMPEAFLYQFATVLKTYYFTTSRPAKFVKQDMEKLRLDTSFVTFVDVYEQYYLNEYGQFIVEDRYRDKEIFDYVDDRLSRIAEEESGEYNVIIDSLSFFLNLNTDWGLKDWLINKLYTLAKEKGVVVYCHLIKNLHPVDVVNKVLDISDVVFDIEVERVGERLVSKFAVPKLRGKRPVTEYFRFYVEEGIQVDTSRDIA	not soluble
